Measurements taken from patent US20170114108A1.

Target: H4 tail (residues 1-30) of the H4ac indicator (UniProt P62805)
Assay: cell-based or functional assay

Which percent of cells discriminated from autofluorescence (FACS), H4ac indicator, 1 µM SAHA does the source give for “TATA binding protein (TBP)-associated factor II (TAFII) bromodomain” here?
The percent of cells discriminated from autofluorescence (FACS), H4ac indicator, 1 µM SAHA was 5 % of cells.

And the percent of cells discriminated from autofluorescence (FACS), H4ac indicator, 2.5 µM SAHA?
The percent of cells discriminated from autofluorescence (FACS), H4ac indicator, 2.5 µM SAHA was 20 % of cells.

And the percent of cells discriminated from autofluorescence (FACS), H4ac indicator, 7.5 µM SAHA?
The percent of cells discriminated from autofluorescence (FACS), H4ac indicator, 7.5 µM SAHA was 40 % of cells.

What about the percent of cells discriminated from autofluorescence (FACS), H4ac indicator, 10 µM SAHA of the same sequence?
Its percent of cells discriminated from autofluorescence (FACS), H4ac indicator, 10 µM SAHA is 45 % of cells.
